Reference: patent US20250339531A1, “DUX4 POLYPEPTIDES AND NUCLEIC ACIDS FOR TREATING INFLAMMATORY AND AUTOIMMUNE CONDITIONS” (Fred Hutchinson Cancer Center, priority 2021, published 2025)

Assays:
Assay in all cases: anti-FLAG co-IP LC-MS, exp 4, +Dox +IFNG
[1] = target: Guanine nucleotide-binding protein G(i) subunit alpha-2 (Homo sapiens) (UniProt P04899)
[2] = target: Junctional sarcoplasmic reticulum protein 1 (Homo sapiens) (UniProt Q96MG2)
[3] = target: 14-3-3 protein sigma (Homo sapiens) (UniProt P31947)
Sequence of 14-3-3 protein sigma (Homo sapiens) (P31947 whole entry): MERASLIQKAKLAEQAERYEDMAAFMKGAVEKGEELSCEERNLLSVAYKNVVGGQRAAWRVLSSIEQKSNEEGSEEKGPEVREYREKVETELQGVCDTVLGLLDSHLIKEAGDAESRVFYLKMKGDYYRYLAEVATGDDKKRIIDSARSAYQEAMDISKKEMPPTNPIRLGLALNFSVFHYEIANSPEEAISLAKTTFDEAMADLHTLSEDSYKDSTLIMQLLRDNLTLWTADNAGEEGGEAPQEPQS

[4] = target: Reticulon-4 (Homo sapiens) (UniProt Q9NQC3)
Sequence of Reticulon-4 (Homo sapiens) (Q9NQC3 whole entry): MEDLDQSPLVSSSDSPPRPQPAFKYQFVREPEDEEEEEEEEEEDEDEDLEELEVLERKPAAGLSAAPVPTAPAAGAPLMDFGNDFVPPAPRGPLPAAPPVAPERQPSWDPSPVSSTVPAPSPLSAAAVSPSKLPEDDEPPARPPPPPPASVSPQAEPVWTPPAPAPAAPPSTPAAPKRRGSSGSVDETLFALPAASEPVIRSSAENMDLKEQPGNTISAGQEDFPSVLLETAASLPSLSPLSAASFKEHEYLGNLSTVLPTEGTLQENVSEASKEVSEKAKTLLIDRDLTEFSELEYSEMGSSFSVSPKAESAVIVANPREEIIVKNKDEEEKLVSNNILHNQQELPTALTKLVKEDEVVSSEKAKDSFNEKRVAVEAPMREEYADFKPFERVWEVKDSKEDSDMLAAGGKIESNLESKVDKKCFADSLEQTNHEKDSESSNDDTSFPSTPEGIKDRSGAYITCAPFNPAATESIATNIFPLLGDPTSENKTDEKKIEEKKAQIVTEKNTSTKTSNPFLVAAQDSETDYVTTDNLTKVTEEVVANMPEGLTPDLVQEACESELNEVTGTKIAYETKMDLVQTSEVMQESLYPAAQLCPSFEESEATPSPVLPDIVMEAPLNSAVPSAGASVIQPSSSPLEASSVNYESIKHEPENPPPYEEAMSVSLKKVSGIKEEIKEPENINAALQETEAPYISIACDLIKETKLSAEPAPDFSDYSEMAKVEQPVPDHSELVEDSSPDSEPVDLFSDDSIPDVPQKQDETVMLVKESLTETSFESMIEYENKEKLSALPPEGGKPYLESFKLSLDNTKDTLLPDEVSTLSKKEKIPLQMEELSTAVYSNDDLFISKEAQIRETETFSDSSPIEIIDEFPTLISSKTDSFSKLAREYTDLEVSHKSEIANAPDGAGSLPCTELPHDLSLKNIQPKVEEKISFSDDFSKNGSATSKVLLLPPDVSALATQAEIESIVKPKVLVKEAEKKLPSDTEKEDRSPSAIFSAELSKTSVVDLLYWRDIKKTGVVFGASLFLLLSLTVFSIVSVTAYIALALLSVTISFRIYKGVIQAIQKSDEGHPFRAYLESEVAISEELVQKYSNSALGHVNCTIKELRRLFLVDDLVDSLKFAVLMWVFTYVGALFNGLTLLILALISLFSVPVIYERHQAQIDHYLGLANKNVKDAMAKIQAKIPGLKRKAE

[5] = target: Nucleosome assembly protein 1-like 1 (Homo sapiens) (UniProt P55209)
Sequence of Nucleosome assembly protein 1-like 1 (Homo sapiens) (P55209 2-388 limits assumed): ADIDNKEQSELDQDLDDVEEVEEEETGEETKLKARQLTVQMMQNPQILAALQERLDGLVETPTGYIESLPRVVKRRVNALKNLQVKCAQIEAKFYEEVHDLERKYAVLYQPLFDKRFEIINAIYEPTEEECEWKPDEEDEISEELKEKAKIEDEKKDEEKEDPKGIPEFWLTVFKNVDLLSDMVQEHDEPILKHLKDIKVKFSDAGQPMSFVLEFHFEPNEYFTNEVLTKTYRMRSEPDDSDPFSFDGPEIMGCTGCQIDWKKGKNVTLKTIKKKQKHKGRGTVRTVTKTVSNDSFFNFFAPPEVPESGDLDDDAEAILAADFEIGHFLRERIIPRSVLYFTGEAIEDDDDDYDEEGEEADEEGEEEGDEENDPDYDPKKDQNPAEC

[6] = target: Endonuclease domain-containing 1 protein (Homo sapiens) (UniProt O94919)
Sequence of Endonuclease domain-containing 1 protein (Homo sapiens) (O94919 22-500 limits assumed): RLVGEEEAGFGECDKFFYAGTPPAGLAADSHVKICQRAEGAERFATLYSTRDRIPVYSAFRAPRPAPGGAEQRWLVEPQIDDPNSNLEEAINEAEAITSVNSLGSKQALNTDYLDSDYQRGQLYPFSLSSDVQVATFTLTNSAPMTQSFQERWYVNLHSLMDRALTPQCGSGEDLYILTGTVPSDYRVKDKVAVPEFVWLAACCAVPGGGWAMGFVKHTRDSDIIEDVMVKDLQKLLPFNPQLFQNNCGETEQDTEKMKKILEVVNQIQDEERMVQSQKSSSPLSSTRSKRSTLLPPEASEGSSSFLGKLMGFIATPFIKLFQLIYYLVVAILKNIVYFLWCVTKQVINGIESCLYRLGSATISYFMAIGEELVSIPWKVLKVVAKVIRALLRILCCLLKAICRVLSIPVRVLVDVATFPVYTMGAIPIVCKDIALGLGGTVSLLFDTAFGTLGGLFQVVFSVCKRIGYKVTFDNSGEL

[7] = target: Procollagen-lysine, 2-oxoglutarate 5-dioxygenase 1 (Homo sapiens) (UniProt Q02809)
[8] = target: Heterogeneous nuclear ribonucleoprotein K (Homo sapiens) (UniProt P61978)
[9] = target: Importin subunit alpha-5 (Homo sapiens) (UniProt P52294)
[10] = target: Vimentin (Homo sapiens) (UniProt P08670)
[11] = target: T-complex protein 1 subunit theta (Homo sapiens) (UniProt P50990)
[12] = target: Galectin-7 (Homo sapiens) (UniProt P47929)
Sequence of Galectin-7 (Homo sapiens) (P47929 whole entry): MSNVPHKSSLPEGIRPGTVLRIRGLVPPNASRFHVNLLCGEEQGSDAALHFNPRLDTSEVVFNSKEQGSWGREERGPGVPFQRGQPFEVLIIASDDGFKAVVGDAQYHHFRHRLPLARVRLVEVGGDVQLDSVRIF

[13] = target: Prolyl 4-hydroxylase subunit alpha-1 (Homo sapiens) (UniProt P13674)
[14] = target: Importin subunit beta-1 (Homo sapiens) (UniProt Q14974)
[15] = target: 40S ribosomal protein S4, X isoform (Homo sapiens) (UniProt P62701)
[16] = target: Heat shock cognate 71 kDa protein (Homo sapiens) (UniProt P11142)
[17] = target: Plectin (Homo sapiens) (UniProt Q15149)
[18] = target: Drebrin (Homo sapiens) (UniProt Q16643)
[19] = target: 4F2 cell-surface antigen heavy chain (Homo sapiens) (UniProt P08195)
Sequence of 4F2 cell-surface antigen heavy chain (Homo sapiens) (P08195 103-630 limits assumed): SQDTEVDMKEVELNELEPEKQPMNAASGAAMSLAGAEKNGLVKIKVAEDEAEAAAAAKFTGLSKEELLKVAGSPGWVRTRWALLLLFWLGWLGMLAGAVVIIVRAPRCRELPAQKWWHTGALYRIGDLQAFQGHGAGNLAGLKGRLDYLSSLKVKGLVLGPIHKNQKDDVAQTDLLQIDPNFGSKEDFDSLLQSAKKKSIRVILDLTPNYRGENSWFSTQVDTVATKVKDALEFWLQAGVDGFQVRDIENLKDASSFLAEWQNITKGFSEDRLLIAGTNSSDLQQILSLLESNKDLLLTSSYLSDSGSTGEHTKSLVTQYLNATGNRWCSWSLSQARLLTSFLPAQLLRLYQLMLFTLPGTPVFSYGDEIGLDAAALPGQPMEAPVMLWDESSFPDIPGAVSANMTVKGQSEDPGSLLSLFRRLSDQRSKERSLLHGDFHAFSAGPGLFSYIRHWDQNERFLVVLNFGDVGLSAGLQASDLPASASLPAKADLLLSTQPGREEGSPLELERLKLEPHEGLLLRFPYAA

[20] = target: 60 kDa heat shock protein, mitochondrial (Homo sapiens) (UniProt P10809)
[21] = target: Dolichyl-diphosphooligosaccharide--protein glycosyltransferase subunit 1 (Homo sapiens) (UniProt P04843)
Sequence of Dolichyl-diphosphooligosaccharide--protein glycosyltransferase subunit 1 (Homo sapiens) (P04843 24-607 limits assumed): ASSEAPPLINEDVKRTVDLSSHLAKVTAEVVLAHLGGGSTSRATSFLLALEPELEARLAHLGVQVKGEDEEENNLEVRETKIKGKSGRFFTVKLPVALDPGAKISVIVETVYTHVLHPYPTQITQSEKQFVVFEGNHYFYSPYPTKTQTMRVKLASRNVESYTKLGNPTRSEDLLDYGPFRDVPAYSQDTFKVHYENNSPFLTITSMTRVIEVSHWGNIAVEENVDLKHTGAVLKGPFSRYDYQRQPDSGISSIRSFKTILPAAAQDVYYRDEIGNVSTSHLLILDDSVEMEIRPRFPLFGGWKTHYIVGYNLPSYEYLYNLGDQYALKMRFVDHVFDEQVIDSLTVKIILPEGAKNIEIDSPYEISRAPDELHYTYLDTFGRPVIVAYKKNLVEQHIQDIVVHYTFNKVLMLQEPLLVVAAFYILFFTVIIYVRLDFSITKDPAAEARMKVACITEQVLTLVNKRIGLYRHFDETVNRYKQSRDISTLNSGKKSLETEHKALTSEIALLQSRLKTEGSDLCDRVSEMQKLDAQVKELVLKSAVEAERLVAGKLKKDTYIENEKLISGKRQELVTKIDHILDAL

[22] = target: Nestin (Homo sapiens) (UniProt P48681)
[23] = target: Insulin-like growth factor 2 mRNA-binding protein 2 (Homo sapiens) (UniProt F8W930)
[24] = target: Prostate tumor-overexpressed gene 1 protein (Homo sapiens) (UniProt Q86YD1)
[25] = target: Elongation factor 1-alpha 1 (Homo sapiens) (UniProt P68104)
[26] = target: T-complex protein 1 subunit gamma (Homo sapiens) (UniProt P49368)
[27] = target: Histone acetyltransferase type B catalytic subunit (Homo sapiens) (UniProt O14929)
Sequence of Histone acetyltransferase type B catalytic subunit (Homo sapiens) (O14929 2-419 limits assumed): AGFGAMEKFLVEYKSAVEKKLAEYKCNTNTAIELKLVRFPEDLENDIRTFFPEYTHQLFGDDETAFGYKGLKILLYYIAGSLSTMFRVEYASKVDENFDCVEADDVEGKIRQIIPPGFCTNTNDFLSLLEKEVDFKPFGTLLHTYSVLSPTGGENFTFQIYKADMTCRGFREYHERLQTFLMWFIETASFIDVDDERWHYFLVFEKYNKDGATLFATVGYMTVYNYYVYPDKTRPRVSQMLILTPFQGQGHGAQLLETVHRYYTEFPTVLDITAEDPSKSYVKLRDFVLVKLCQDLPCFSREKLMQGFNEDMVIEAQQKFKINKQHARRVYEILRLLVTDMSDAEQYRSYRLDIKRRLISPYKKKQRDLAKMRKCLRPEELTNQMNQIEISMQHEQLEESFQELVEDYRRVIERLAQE

[28] = target: Heterogeneous nuclear ribonucleoprotein H (Homo sapiens) (UniProt G8JLB6)
[29] = target: 60S acidic ribosomal protein P0 (Homo sapiens) (UniProt P05388)
[30] = target: 60S ribosomal protein L11 (Homo sapiens) (UniProt P62913)
[31] = target: Transcription intermediary factor 1-beta (Homo sapiens) (UniProt Q13263)
[32] = target: Desmin (Homo sapiens) (UniProt P17661)
Sequence of Desmin (Homo sapiens) (P17661 2-470 limits assumed): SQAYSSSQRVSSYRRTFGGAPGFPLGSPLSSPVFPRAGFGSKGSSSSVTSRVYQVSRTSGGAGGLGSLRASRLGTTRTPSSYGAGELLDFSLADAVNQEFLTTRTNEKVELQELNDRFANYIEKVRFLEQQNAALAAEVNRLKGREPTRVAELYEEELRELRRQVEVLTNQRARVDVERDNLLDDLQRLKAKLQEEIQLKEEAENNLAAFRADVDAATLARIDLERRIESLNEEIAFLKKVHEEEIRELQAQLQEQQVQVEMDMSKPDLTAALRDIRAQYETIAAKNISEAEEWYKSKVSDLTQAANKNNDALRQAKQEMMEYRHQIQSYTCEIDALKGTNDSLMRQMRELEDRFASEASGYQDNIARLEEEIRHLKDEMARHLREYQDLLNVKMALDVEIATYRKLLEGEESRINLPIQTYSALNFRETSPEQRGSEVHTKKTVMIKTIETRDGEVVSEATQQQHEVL

[33] = target: Talin-1 (Homo sapiens) (UniProt Q9Y490)
[34] = target: Tubulin beta-2A chain (Homo sapiens) (UniProt Q13885)
Sequence of Tubulin beta-2A chain (Homo sapiens) (Q13885 whole entry): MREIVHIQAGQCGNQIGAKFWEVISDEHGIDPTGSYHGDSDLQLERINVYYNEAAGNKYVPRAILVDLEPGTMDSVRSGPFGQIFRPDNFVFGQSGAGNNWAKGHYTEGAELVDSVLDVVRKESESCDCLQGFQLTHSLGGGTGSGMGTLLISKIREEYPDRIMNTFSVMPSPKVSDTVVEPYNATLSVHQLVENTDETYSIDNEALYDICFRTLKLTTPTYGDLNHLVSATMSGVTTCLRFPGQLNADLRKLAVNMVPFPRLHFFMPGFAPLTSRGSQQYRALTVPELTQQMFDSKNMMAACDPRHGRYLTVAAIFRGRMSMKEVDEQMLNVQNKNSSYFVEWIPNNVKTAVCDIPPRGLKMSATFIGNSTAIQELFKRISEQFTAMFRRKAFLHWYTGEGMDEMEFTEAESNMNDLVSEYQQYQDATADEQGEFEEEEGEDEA

[35] = target: Heat shock 70 kDa protein 1B (Homo sapiens) (UniProt P0DMV9)
[36] = target: 60S ribosomal protein L5 (Homo sapiens) (UniProt P46777)
[37] = target: Protein disulfide-isomerase (Homo sapiens) (UniProt P07237)

**Q.** For i3XFLAG-NLS-CTDaa154-424, which PSMs [1] is on record?
**A.** 11 PSMs

**Q.** And the PSMs [2]?
**A.** 3 PSMs

**Q.** And the PSMs [3]?
**A.** 6 PSMs

**Q.** And the PSMs [4]?
**A.** 6 PSMs

**Q.** And the PSMs [5]?
**A.** 3 PSMs

**Q.** And the PSMs [6]?
**A.** 2 PSMs

**Q.** And the PSMs [7]?
**A.** 6 PSMs

**Q.** And the PSMs [8]?
**A.** 6 PSMs

**Q.** What about the PSMs [9] of the same substance?
**A.** 2 PSMs

**Q.** And the PSMs [10]?
**A.** 55 PSMs

**Q.** What about the PSMs [11] of the same substance?
**A.** 3 PSMs

**Q.** And the PSMs [12]?
**A.** 6 PSMs

**Q.** What about the PSMs [13] of the same substance?
**A.** 9 PSMs

**Q.** What about the PSMs [14] of the same substance?
**A.** 3 PSMs

**Q.** What about the PSMs [15] of the same substance?
**A.** 3 PSMs

**Q.** And the PSMs [16]?
**A.** 105 PSMs

**Q.** What about the PSMs [17] of the same substance?
**A.** 7 PSMs

**Q.** What about the PSMs [18] of the same substance?
**A.** 33 PSMs

**Q.** What about the PSMs [19] of the same substance?
**A.** 2 PSMs

**Q.** And the PSMs [20]?
**A.** 5 PSMs

**Q.** And the PSMs [21]?
**A.** 2 PSMs

**Q.** And the PSMs [22]?
**A.** 2 PSMs

**Q.** What about the PSMs [23] of the same substance?
**A.** 2 PSMs

**Q.** What about the PSMs [24] of the same substance?
**A.** 2 PSMs

**Q.** And the PSMs [25]?
**A.** 9 PSMs

**Q.** What about the PSMs [26] of the same substance?
**A.** 2 PSMs

**Q.** What about the PSMs [27] of the same substance?
**A.** 9 PSMs

**Q.** What about the PSMs [28] of the same substance?
**A.** 3 PSMs

**Q.** And the PSMs [29]?
**A.** 36 PSMs

**Q.** What about the PSMs [30] of the same substance?
**A.** 3 PSMs

**Q.** What about the PSMs [31] of the same substance?
**A.** 2 PSMs

**Q.** And the PSMs [32]?
**A.** 12 PSMs

**Q.** What about the PSMs [33] of the same substance?
**A.** 3 PSMs

**Q.** What about the PSMs [34] of the same substance?
**A.** 99 PSMs

**Q.** What about the PSMs [35] of the same substance?
**A.** 29 PSMs

**Q.** What about the PSMs [36] of the same substance?
**A.** 19 PSMs

**Q.** And the PSMs [37]?
**A.** 14 PSMs
